Our source for the surviving cells on 3AT values is publication PMC3519819.

The target of this assay is IscS fused with the bait protein (pBT-IscS, pJTU3618) (E. coli), P0A6B7. As to the kind of experiment: two-hybrid; BacterioMatch II bacterial two-hybrid; IscS on pBT (bait), Dpt proteins on pTRG (target); reporter strain E. coli XL1-Blue MRF' Kan; colonies counted on Selective Screening Medium with 5 mM 3-AT against nonselective medium, 24 h at 37°C. The note with it: remark: other sources report otherwise.
IscS fused with the bait protein (pBT-IscS, pJTU3618) (E. coli), P0A6B7, sequence (P0A6B7 whole entry, the tested form may be a part): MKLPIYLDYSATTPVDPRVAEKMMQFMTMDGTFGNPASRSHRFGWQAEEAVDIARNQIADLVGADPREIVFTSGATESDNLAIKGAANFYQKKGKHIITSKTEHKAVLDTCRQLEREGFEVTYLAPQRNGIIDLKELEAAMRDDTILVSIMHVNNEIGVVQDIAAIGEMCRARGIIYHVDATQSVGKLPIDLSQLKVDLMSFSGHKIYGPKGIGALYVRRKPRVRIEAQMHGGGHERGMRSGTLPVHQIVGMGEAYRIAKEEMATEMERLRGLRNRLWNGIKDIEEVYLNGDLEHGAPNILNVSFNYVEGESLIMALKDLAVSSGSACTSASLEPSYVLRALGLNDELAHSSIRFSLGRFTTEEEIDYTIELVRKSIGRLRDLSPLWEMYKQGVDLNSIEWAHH

B1: DptC fused with the target protein (pTRG-DptC, pJTU3610), E2D677 1-544 (natural protein)
chain: MSKLVQAYDLAEYEDFINQEQFAGRPLAEYVAEVQRIYCADKRPWVIGYSGGKDSSAVITLVYLALLGLPPEMRSKDVFIVSSDTLVETPVVVDLIKKTMLQIEAGAKRNGLPITQHAVTPKTNETFWVNLLGKGYPAPTRSFRWCTERMKINPVSDFIKDKVSQFDEVIVVLGSRSSESASRAQVIAKHKIDGSRLARHTTLANAFIYTPIDTWDVEDVWKLLRGAFRYAPEDIDEWESPWGGNNRPLWTLYMDSSAQGECPLVIDESTPSCGNSRFGCWTCTVVTKDKAMESLIKNGEEWMSPLLKYRDLLAFTTDPANKDTYRNYKRRTGKVSYQYAKDGEDRSAERKHVPGPYWLKYRQQWLKDLLEIERDLNAQGHTITLITQPELHAIRQEWLKDPNEPDWHDTLPEIYREVYQQDLNWVVDDQSRFDASDADLLAQITQGFDVVPEMVMKLIELETSMEGLSRRQGIFDKLGTILKQDWGSLEEIQQQQATLQKRNDRDIHQDEVEKLEAELQTLQRRIIDAGESSVLIDEENERAH
B1: the surviving cells on 3AT turned out to be 2%.
